Assay results from patent publication US20170233497A1.
Substitutions are numbered along the chain they refer to. Names and notes keep the numbering of the source. One block for each binder: values may come before it.

Target: IgG1Δhinge fragment of IgG1-7D8-K409R (human)
Assay: native mass spectrometry; CH2-CH3 fragment mixed 24 h with the IgG1Δhinge fragment of IgG1-7D8-K409R (heterodimer)

Kd: 12 nM
B1: CH2-CH3 fragment of human IgG1 with F405L, P01857 224-330 (protein, UniProt P01857-1 224-330, looked up, name in EU numbering, not shown: small tags and cut ends)
chain: GQPREPQVYTLPPSRDELTKNQVSLTCLVKGFYPSDIAVEWESNGQPENNYKTTPPVLDSDGSFLLYSKLTVDKSRWQQGNVFSCSVMHEALHNHYTQKSLSLSPGK

Kd: 17 nM
B2: CH2-CH3 fragment of human IgG1 with T350I-K370T-F405L, P01857 224-330 (protein, UniProt P01857-1 224-330, looked up, name in EU numbering, not shown: small tags and cut ends)
chain: B1 chain with T10I, K30T
